Consider 6 molecules from patent publication JP2019147786A (dated 2019).

Assay [1] deals with T1, 可溶性ヒトgp130受容体 (soluble human gp130 receptor, extracellular region with six histidines, made in CHO DG44 cells) (human, UniProt P40189 23-619).
T1 construct: The stated range 1-619 begins at Met 1 and so holds the native signal peptide; also called 可溶性ヒトgp130受容体タンパク質; ヒトgp130受容体
T1 sequence: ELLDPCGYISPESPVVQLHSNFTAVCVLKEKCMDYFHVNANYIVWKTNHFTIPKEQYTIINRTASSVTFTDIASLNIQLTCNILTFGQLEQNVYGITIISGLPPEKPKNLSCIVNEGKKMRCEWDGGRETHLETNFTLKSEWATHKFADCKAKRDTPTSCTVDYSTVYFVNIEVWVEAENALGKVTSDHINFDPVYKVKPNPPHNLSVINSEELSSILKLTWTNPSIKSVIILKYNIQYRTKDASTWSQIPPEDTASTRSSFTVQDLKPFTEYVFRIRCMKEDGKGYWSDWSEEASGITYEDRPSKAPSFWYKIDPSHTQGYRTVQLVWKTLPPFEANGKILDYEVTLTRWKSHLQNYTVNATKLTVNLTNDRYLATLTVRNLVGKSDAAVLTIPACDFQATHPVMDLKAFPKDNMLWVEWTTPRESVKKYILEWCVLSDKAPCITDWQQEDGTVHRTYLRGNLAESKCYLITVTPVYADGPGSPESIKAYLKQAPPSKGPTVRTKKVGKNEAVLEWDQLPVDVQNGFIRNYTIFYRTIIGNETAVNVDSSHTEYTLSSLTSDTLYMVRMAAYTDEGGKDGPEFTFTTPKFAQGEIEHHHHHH
Put plainly: ELISA, soluble gp130 coated on the plate, hybridoma supernatant, anti-mouse HRP. On the technique in general: An ELISA detects its analyte on a solid surface through an enzyme-linked reagent.

The target in assay [2] is T1, 可溶性ヒトgp130受容体 (soluble human gp130 …). Put plainly: SPR (Biacore T200), gp130 amine-coupled on CM5 (352 RU), Fab as analyte, 25 C. (In general: SPR reads the build-up and loss of mass on a sensor chip optically.)
For assay [3] the target is unchanged. Kind of assay: SPR (Biacore T200), gp130 amine-coupled on CM5 (235.2 RU), Fab as analyte.
Assay [4] shares this target. Put plainly: SPR (Biacore T200), gp130 amine-coupled on CM5 (376 RU), full-length IgG as analyte.

B1: 抗体A (mouse anti-human gp130 receptor monoclonal antibody from hybridoma) (antibody, mouse IgG1, kappa, V domains shown)
VH: EVLLQQSGPELVKPGASVKIPCKASGYTFTDYNMDWVKQSHGKSLEWIGDINSHSGGIIYNQKFKDKAILTVDKSSSTAYMELRSLTSEDTAVYYCARTYYVYGHFFDYWGQGTTLTVSS
VL: QSVLTQSPAFISASPGEKVTMTCNVSSSVTSMYWYQQKPGSSPKPWIYLTSNLASGVPPRFSGSGSGTSYSLTISSLEAEDAATYYCQQWSTNPLTFGAGTKLELKR
notes: also called マウス抗体A; antibody A
As to B1, the binding result in assay [1] is listed as “binds”.

B2: hAH1mAL (Fab: humanized VH hAH1 with the mouse L chain of antibody A, from pUC-Fab-hAH1mAL) (Fab, V domains shown)
VH: QVQLQQPGAELVQPGTSVRLSCKASGYTFTDYNMDWVKQRPGQGLEWIGDINSHSGGIIYNQKFKDKATLTVDKSSSTAYMQLSSLTSEDSAVYYCARTYYVYGHFFDYWGQGTLVTVSA
VL: QSVLTQSPAFISASPGEKVTMTCNVSSSVTSMYWYQQKPGSSPKPWIYLTSNLASGVPPRFSGSGSGTSYSLTISSLEAEDAATYYCQQWSTNPLTFGAGTKLELKR
The term Kd denotes the constant that tells how readily two partners part at equilibrium. In general, koff refers to the first-order rate constant of dissociation. A high value points to fast dissociation. What is called kon is the rate constant with which the complex forms. In assay [2], B2 gave a Kd of 0.46 nM, a koff of 8.21e-05 s⁻¹ and a kon of 178000 M⁻¹ s⁻¹.

B3: 小型化マウス抗体A (Fab of mouse antibody A, from pUC-Fab-mAHmAL, E. coli) (Fab, V domains shown)
VH: EVLLQQSGPELVKPGASVKIPCKASGYTFTDYNMDWVKQSHGKSLEWIGDINSHSGGIIYNQKFKDKAILTVDKSSSTAYMELRSLTSEDTAVYYCARTYYVYGHFFDYWGQGTTLTVSS
VL: QSVLTQSPAFISASPGEKVTMTCNVSSSVTSMYWYQQKPGSSPKPWIYLTSNLASGVPPRFSGSGSGTSYSLTISSLEAEDAATYYCQQWSTNPLTFGAGTKLELKR
In assay [2], B3 displayed a Kd of 0.598 nM, a koff of 8.42e-05 s⁻¹ and a kon of 141000 M⁻¹ s⁻¹.

B4: hAH1hAL1 (humanized Fab, VH SEQ ID NO 25, VL SEQ ID NO 76, from pUC-Fab-hAH1hAL1) (Fab, V domains shown)
VH: QVQLQQPGAELVQPGTSVRLSCKASGYTFTDYNMDWVKQRPGQGLEWIGDINSHSGGIIYNQKFKDKATLTVDKSSSTAYMQLSSLTSEDSAVYYCARTYYVYGHFFDYWGQGTLVTVSA
VL: DIQMTQSPSSLSASVGDRVTITCNVSSSVTSMYWYQQKQGKSPQLLVYLTSNLASGVPARFSGSGSGTEFTLTISSLQPDDFATYYCQQWSTNPLTFGAGTKLDLKR
For the molecule B4, in assay [3], the dissociation constant Kd came to 0.218 nM, the koff is 5.6e-05 s⁻¹ and the kon is 257000 M⁻¹ s⁻¹.

B5: hAH1hAL2 (humanized Fab, VH SEQ ID NO 25, VL SEQ ID NO 77, from pUC-Fab-hAH1hAL2) (Fab, V domains shown)
VH: QVQLQQPGAELVQPGTSVRLSCKASGYTFTDYNMDWVKQRPGQGLEWIGDINSHSGGIIYNQKFKDKATLTVDKSSSTAYMQLSSLTSEDSAVYYCARTYYVYGHFFDYWGQGTLVTVSA
VL: ELVLTQSPGTLSLSAGERATLSCNVSSSVTSMYWYQQKPGKAPKLLIYLTSNLASGVPSRFSGSGSGTQFSLKINNLQPEDFGSYYCQQWSTNPLTFGAGTKLDLKR
B5: in assay [3], the affinity, expressed as Kd, was 0.594 nM; the koff is 7.05e-05 s⁻¹; the kon came out at 119000 M⁻¹ s⁻¹.

B6: hAH1hAL3 (full-length humanized anti-gp130 receptor antibody, H chain hAH1, L chain hAL3, made in CHO DG44 cells) (antibody, human IgG1, kappa, V domains shown)
VH: QVQLQQPGAELVQPGTSVRLSCKASGYTFTDYNMDWVKQRPGQGLEWIGDINSHSGGIIYNQKFKDKATLTVDKSSSTAYMQLSSLTSEDSAVYYCARTYYVYGHFFDYWGQGTLVTVSA
VL: DIQMTQSPSSLSASVGDRVTITCNVSSSVTSMYWFQQRPGQAPKVLIYLTSNLASGVPSRFSGSGSGTEFTLTISSLQPDDFATYYCQQWSTNPLTFGQGTKVEIKR
notes: Human IgG1, kappa constant regions; also called ヒト化抗体hAH1hAL3
As to B6, in assay [4], binding was characterised by a dissociation constant (Kd) of 0.585 nM, the dissociation rate constant (koff) turned out to be 7.25e-05 s⁻¹ and the kon was determined as 124000 M⁻¹ s⁻¹.
